{"source": "patent US20260325600A1", "about": "“FORMULATIONS FOR INTRAOCULAR DELIVERY OF PEPTIDES DERIVED FROM TYPE IV COLLAGEN” (ASCLEPIX THERAPEUTICS, INC., priority 2022, published 2026)", "key": {"[1]": {"test": "In vitro gel formation in mock vitreous and homogenization", "format": "physicochemical", "method": "In alternative embodiments, microparticles can be prepared and fragmented. For example, a vitreous-like solution (“mock vitreous”) was prepared with sodium hyaluronate and used for in vitro pre-fragmented gel formation experiments. The AXT107 peptide solution is added to the mock vitreous, upon which the peptide forms a gel."}, "[2]": {"conditions": "aqueous solution administered into vitreous from animals and people; cited from earlier work"}}, "data": [{"sequence": "LRRFSTAPFAFIDINDVINF [AXT107]", "values": [{"measurement": "product of homogenization of gel", "setting": "[1]; gels homogenized after formation in mock vitreous", "result": "suspended microparticles comparable to those formed in excipient formulation with mixing"}, {"measurement": "gel formation in mock vitreous", "setting": "[1]; mock vitreous with sodium hyaluronate", "result": "forms a gel"}, {"measurement": "gel formation in vitreous", "setting": "[2]", "result": "precipitate to form a gel-like substance"}]}]}
